Laboratory results from publication PMC3643854.

Key:
[1] = biological target: HIV-1 AD8 gp120 surface glycoprotein; test: Western blotting of pelleted virions (virion-associated gp120 normalised to p24); settings: virions from 293T cells transfected with pAD8 proviral clones; virions were analysed at 48 h posttransfection; parent: 2.16
[2] = biological target: HIV-1 AD8 gp120 surface glycoprotein; test: immunoprecipitation of pulse-chase biosynthetically labelled Env from cell lysates (c) and supernatants (s), SDS-PAGE and phosphorimaging; settings: transfected 293T cells; cellular Env was analysed 5 h post synthesis; parent: 1
[3] = biological target: HIV-1 AD8 gp41 W596L/K601H (HIV-1 AD8)
[4] = biological target: HIV-1 AD8 gp41 W596L/K601H/D674E (HIV-1 AD8)

HIV-1 AD8 gp41 transmembrane glycoprotein, wild type W596L; K601H; D674E
other: gp120 pixels/p24 pixels [1]: 1.07
ratio to parent [2]: 3.59

HIV-1 AD8 gp41 transmembrane glycoprotein, wild type ΔTW/WL/KH/DN
other: gp120 pixels/p24 pixels [1]: 0.6
ratio to parent [2]: 4.13

HIV-1 AD8 gp41 transmembrane glycoprotein, wild type W596L; K601H
other: gp120 pixels/p24 pixels [1]: 0.93
ratio to parent [2]: 3.37

HIV-1 AD8 gp41 transmembrane glycoprotein, wild type WL/KH/DG
other: gp120 pixels/p24 pixels [1]: 0.8
ratio to parent [2]: 5.36

HIV-1 AD8 gp41 transmembrane glycoprotein, wild type WL/KH/DN
other: gp120 pixels/p24 pixels [1]: 0.67
ratio to parent [2]: 3.96

C34 fusion inhibitor peptide
neutralization of HIV-1 AD8 virus in TZM-bl cells (luciferase), C34 IC50 against that for WT virus (log10 decrease against WT) [3]: 0.5
neutralization of HIV-1 AD8 virus in TZM-bl cells (luciferase), C34 IC50 against that for WT virus (log10 decrease against WT) [4]: 0.5
